# Experimental data: the supplement of paper PMC10567573
# B1: TRIM43 (parent)
# chain: RAQMIRNEYRKLHPVLHKEEKQHL
# Variants of: B1
# Assay: protein stability index of a GFP-peptide fusion (GPS, HEK-293T) (PSI 1-6); higher = more stable
# Conditions: c terminus: a fixed tail appended
# 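Also: lentivirally expressed fusions sorted by FACS into six bins by GFP to DsRed ratio, PSI derived from sequencing read proportions per bin multiplied by bin number.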
row,Variant,protein stability index
1,RAQMIRNEYRKLHPVNHKEEKQHL,3.95
2,RAQMIRNEYRKLHPVTHKEEKQHL,3.57
3,RAQMIRNEYRKLHPVSHKEEKQHL,3.65
4,RAQMIRNEYRKLHPVMHKEEKQHL,3.94
5,RAQMIRNEYRKLHPVGHKEEKQHL,3.1
6,RAQMIRNEYRKLHPVVHKEEKQHL,4.07
7,RAQMIRNEYRKLHPVKHKEEKQHL,3.85
8,RAQMIRNEYRKLHPVCHKEEKQHL,2.71
9,RAQMIRNEYRKLHPVPHKEEKQHL,3.92
10,RAQMIRNEYRKLHPVQHKEEKQHL,3.85
11,RAQMIRNEYRKLHPVIHKEEKQHL,3.31
12,RAQMIRNEYRKLHPVRHKEEKQHL,3.84
13,RAQMIRNEYRKLHPVDHKEEKQHL,4.12
14,RAQMIRNEYRKLHPVFHKEEKQHL,3.04
15,RAQMIRNEYRKLHPVYHKEEKQHL,2.52
16,RAQMIRNEYRKLHPVEHKEEKQHL,4.04
17,RAQMIRNEYRKLHPVHHKEEKQHL,3.2
18,RAQMIRNEYRKLHPVWHKEEKQHL,2.3
19,RAQMIRNEYRKLHPVAHKEEKQHL,3.52
20,RAQMIRNEYRKLHPTLHKEEKQHL,3.13
21,RAQMIRNEYRKLHPMLHKEEKQHL,3.67
22,RAQMIRNEYRKLHPKLHKEEKQHL,3.29
23,RAQMIRNEYRKLHPILHKEEKQHL,3.09
24,RAQMIRNEYRKLHPCLHKEEKQHL,3

row,Variant,protein stability index
1,RAQMIRNEYRKLHPWLHKEEKQHL,2.5
2,RAQMIRNEYRKLHPALHKEEKQHL,3.39
3,RAQMIRNEYRKLHPLLHKEEKQHL,2.63
4,RAQMIRNEYRKLHPRLHKEEKQHL,3.37
5,RAQMIRNEYRKLHPHLHKEEKQHL,2.98
6,RAQMIRNEYRKLHPNLHKEEKQHL,3.65
7,RAQMIRNEYRKLHPSLHKEEKQHL,2.94
8,RAQMIRNEYRKLHPDLHKEEKQHL,3.64
9,RAQMIRNEYRKLHPPLHKEEKQHL,3.32
10,RAQMIRNEYRKLHPQLHKEEKQHL,3.17
11,RAQMIRNEYRKLHPYLHKEEKQHL,2.7
12,RAQMIRNEYRKLHPELHKEEKQHL,3.5
13,RAQMIRNEYRKLHPGLHKEEKQHL,3.88
14,RAQMIRNEYRKLHPVLHKTEKQHL,2.82
15,RAQMIRNEYRKLHPVLHKGEKQHL,2.96
16,RAQMIRNEYRKLHPVLHKYEKQHL,1.97
17,RAQMIRNEYRKLHPVLHKCEKQHL,2.71
18,RAQMIRNEYRKLHPVLHKPEKQHL,4.02
19,RAQMIRNEYRKLHPVLHKAEKQHL,2.17
20,RAQMIRNEYRKLHPVLHKNEKQHL,2.42
21,RAQMIRNEYRKLHPVLHKKEKQHL,3.41
22,RAQMIRNEYRKLHPVLHKLEKQHL,2.07
23,RAQMIRNEYRKLHPVLHKWEKQHL,2.18
24,RAQMIRNEYRKLHPVLHKREKQHL,2.93

row,Variant,protein stability index
1,RAQMIRNEYRKLHPVLHKFEKQHL,1.98
2,RAQMIRNEYRKLHPVLHKDEKQHL,3.02
3,RAQMIRNEYRKLHPVLHKQEKQHL,3.22
4,RAQMIRNEYRKLHPVLHKVEKQHL,2.25
5,RAQMIRNEYRKLHPVLHKIEKQHL,1.73
6,RAQMIRNEYRKLHPVLHKMEKQHL,2.23
7,RAQMIRNEYRKLHPVLHKHEKQHL,2.34
8,RAQMIRNEYRKLHPVLHKSEKQHL,2.92
9,RAQMIRNEYRKLHPVLHKEEKQSL,3.45
10,RAQMIRNEYRKLHPVLHKEEKQQL,3.35
11,RAQMIRNEYRKLHPVLHKEEKQTL,3.23
12,RAQMIRNEYRKLHPVLHKEEKQKL,3.33
13,RAQMIRNEYRKLHPVLHKEEKQRL,2.94
14,RAQMIRNEYRKLHPVLHKEEKQNL,3.13
15,RAQMIRNEYRKLHPVLHKEEKQVL,3.17
16,RAQMIRNEYRKLHPVLHKEEKQLL,3.18
17,RAQMIRNEYRKLHPVLHKEEKQGL,3.63
18,RAQMIRNEYRKLHPVLHKEEKQCL,3.51
19,RAQMIRNEYRKLHPVLHKEEKQAL,3.08
20,RAQMIRNEYRKLHPVLHKEEKQWL,2.61
21,RAQMIRNEYRKLHPVLHKEEKQEL,3.81
22,RAQMIRNEYRKLHPVLHKEEKQML,3.39
23,RAQMIRNEYRKLHPVLHKEEKQFL,2.58
24,RAQMIRNEYRKLHPVLHKEEKQPL,3.09

row,Variant,protein stability index
1,RAQMIRNEYRKLHPVLHKEEKQIL,2.46
2,RAQMIRNEYRKLHPVLHKEEKQDL,4.45
3,RAQMIRNEYRKLHPVLHKEEKQYL,2.74
4,RAQMIRNEYRKLHPVLHKEEWQHL,2.51
5,RAQMIRNEYRKLHPVLHKEEHQHL,3.15
6,RAQMIRNEYRKLHPVLHKEEQQHL,4.17
7,RAQMIRNEYRKLHPVLHKEEAQHL,2.91
8,RAQMIRNEYRKLHPVLHKEEIQHL,2.59
9,RAQMIRNEYRKLHPVLHKEERQHL,3.46
10,RAQMIRNEYRKLHPVLHKEEYQHL,2.71
11,RAQMIRNEYRKLHPVLHKEESQHL,2.81
12,RAQMIRNEYRKLHPVLHKEECQHL,3.18
13,RAQMIRNEYRKLHPVLHKEEEQHL,4.63
14,RAQMIRNEYRKLHPVLHKEEDQHL,3.82
15,RAQMIRNEYRKLHPVLHKEENQHL,2.77
16,RAQMIRNEYRKLHPVLHKEEVQHL,3.37
17,RAQMIRNEYRKLHPVLHKEEGQHL,2.42
18,RAQMIRNEYRKLHPVLHKEEFQHL,2.58
19,RAQMIRNEYRKLHPVLHKEETQHL,2.92
20,RAQMIRNEYRKLHPVLHKEEPQHL,2.97
21,RAQMIRNEYRKLHPVLHKEELQHL,2.4
22,RAQMIRNEYRKLHPVLHKEEMQHL,2.54
